Columns and labels:
[1] = molecular target: KEAP1 (wild-type full-length), His-tagged (human) (UniProt Q14145); assay: AlphaScreen; 153.6 nM FLAG-NRF2, 150 nM His-KEAP1; signal against NRF2 only; control for I28V
[2] = molecular target: KEAP1 (wild-type full-length), His-tagged (human) (UniProt Q14145); assay: AlphaScreen; 153.6 nM FLAG-NRF2, 150 nM His-KEAP1; Rep 2; control for I28V
[3] = molecular target: KEAP1 (wild-type full-length), His-tagged (human) (UniProt Q14145); assay: AlphaScreen; FLAG-NRF2 wt isoform 1 614.4 nM, His-KEAP1 150 nM; Rep 2; positive control for Q75R
[4] = molecular target: KEAP1 (wild-type full-length), His-tagged (human) (UniProt Q14145); assay: AlphaScreen; 76.8 nM FLAG-NRF2, 150 nM His-KEAP1; Rep 2; control for I28V
[5] = molecular target: KEAP1 (wild-type full-length), His-tagged (human) (UniProt Q14145); assay: AlphaScreen; 19.2 nM FLAG-NRF2, 150 nM His-KEAP1; Rep 3; control for I86V
[6] = molecular target: KEAP1 (wild-type full-length), His-tagged (human) (UniProt Q14145); assay: AlphaScreen; 614.4 nM FLAG-NRF2, 150 nM His-KEAP1; Rep 1; control for I86V
[7] = molecular target: KEAP1 (wild-type full-length), His-tagged (human) (UniProt Q14145); assay: AlphaScreen; 19.2 nM FLAG-NRF2, 150 nM His-KEAP1 (same value as in Table 26)
[8] = molecular target: KEAP1 (wild-type full-length), His-tagged (human) (UniProt Q14145); assay: AlphaScreen; mean over 9.6, 19.2 and 38.4 nM NRF2 wt isoform 1, KEAP1 150 nM; reference for I86V
[9] = molecular target: KEAP1 (wild-type full-length), His-tagged (human) (UniProt Q14145); assay: AlphaScreen; NRF2 wt isoform 1 9.6 nM, KEAP1 150 nM; set as the 100 % reference for I86V
[10] = molecular target: KEAP1 (wild-type full-length), His-tagged (human) (UniProt Q14145); assay: AlphaScreen; NRF2 wt isoform 1 153.6 nM, KEAP1 150 nM; signal against NRF2-only control; control for Q75R
[11] = molecular target: KEAP1 (wild-type full-length), His-tagged (human) (UniProt Q14145); assay: AlphaScreen; 38.4 nM FLAG-NRF2, 150 nM His-KEAP1; Repeat 2 (same value as in Table 26)
[12] = molecular target: KEAP1 (wild-type full-length), His-tagged (human) (UniProt Q14145); assay: AlphaScreen; 9.6 nM FLAG-NRF2, 150 nM His-KEAP1; Rep 3; control for I86V
[13] = molecular target: KEAP1 (wild-type full-length), His-tagged (human) (UniProt Q14145); assay: AlphaScreen; FLAG-NRF2 wt isoform 1 307.2 nM, His-KEAP1 150 nM; Rep 1; positive control for Q75R
[14] = molecular target: KEAP1 (wild-type full-length), His-tagged (human) (UniProt Q14145); assay: AlphaScreen, all variants on one plate; lower condition (9.6 nM NRF2), KEAP1 150 nM; the reference itself
[15] = molecular target: KEAP1 (wild-type full-length), His-tagged (human) (UniProt Q14145); assay: AlphaScreen; 2.4 nM FLAG-NRF2, 150 nM His-KEAP1; Rep 2; control for I86V
[16] = molecular target: KEAP1 (wild-type full-length), His-tagged (human) (UniProt Q14145); assay: AlphaScreen; FLAG-NRF2 wt isoform 1 4.8 nM, His-KEAP1 150 nM; Rep 1; positive control for Q75R
[17] = molecular target: KEAP1 (wild-type full-length), His-tagged (human) (UniProt Q14145); assay: AlphaScreen; 307.2 nM FLAG-NRF2, 150 nM His-KEAP1; Rep 1; control for I28V
[18] = molecular target: KEAP1 (wild-type full-length), His-tagged (human) (UniProt Q14145); assay: AlphaScreen; FLAG-NRF2 wt isoform 1 9.6 nM, His-KEAP1 150 nM; Rep 1; positive control for I86V
[19] = molecular target: KEAP1 (wild-type full-length), His-tagged (human) (UniProt Q14145); assay: AlphaScreen; 19.2 nM FLAG-NRF2, 150 nM His-KEAP1; signal against NRF2 only
[20] = molecular target: KEAP1 (wild-type full-length), His-tagged (human) (UniProt Q14145); assay: AlphaScreen; 4.8 nM FLAG-NRF2, 150 nM His-KEAP1; Rep 2
[21] = molecular target: KEAP1 (wild-type full-length), His-tagged (human) (UniProt Q14145); assay: AlphaScreen; average of three conditions; against wild-type NRF2 isoform 1
[22] = molecular target: KEAP1 (wild-type full-length), His-tagged (human) (UniProt Q14145); assay: AlphaScreen; 614.4 nM FLAG-NRF2, 150 nM His-KEAP1; Rep 1
[23] = molecular target: KEAP1 (wild-type full-length), His-tagged (human) (UniProt Q14145); assay: AlphaScreen; FLAG-NRF2 I86V 4.8 nM, His-KEAP1 150 nM; Rep 2
[24] = molecular target: KEAP1 (wild-type full-length), His-tagged (human) (UniProt Q14145); assay: AlphaScreen; NRF2 I86V 19.2 nM, KEAP1 150 nM; relative to wild-type NRF2 isoform 1 (100 %)
[25] = molecular target: KEAP1 (wild-type full-length), His-tagged (human) (UniProt Q14145); assay: AlphaScreen; NRF2 I86V 614.4 nM, KEAP1 150 nM; signal against NRF2-only control
[26] = molecular target: KEAP1 (wild-type full-length), His-tagged (human) (UniProt Q14145); assay: AlphaScreen; FLAG-NRF2 Q75R 19.2 nM, His-KEAP1 150 nM; Rep 1
[27] = molecular target: KEAP1 (wild-type full-length), His-tagged (human) (UniProt Q14145); assay: AlphaScreen; FLAG-NRF2 Q75R 38.4 nM, His-KEAP1 150 nM; Rep 1

KEAP1 (wild-type full-length), His-tagged (human), sequence (Q14145 2-624 limits assumed): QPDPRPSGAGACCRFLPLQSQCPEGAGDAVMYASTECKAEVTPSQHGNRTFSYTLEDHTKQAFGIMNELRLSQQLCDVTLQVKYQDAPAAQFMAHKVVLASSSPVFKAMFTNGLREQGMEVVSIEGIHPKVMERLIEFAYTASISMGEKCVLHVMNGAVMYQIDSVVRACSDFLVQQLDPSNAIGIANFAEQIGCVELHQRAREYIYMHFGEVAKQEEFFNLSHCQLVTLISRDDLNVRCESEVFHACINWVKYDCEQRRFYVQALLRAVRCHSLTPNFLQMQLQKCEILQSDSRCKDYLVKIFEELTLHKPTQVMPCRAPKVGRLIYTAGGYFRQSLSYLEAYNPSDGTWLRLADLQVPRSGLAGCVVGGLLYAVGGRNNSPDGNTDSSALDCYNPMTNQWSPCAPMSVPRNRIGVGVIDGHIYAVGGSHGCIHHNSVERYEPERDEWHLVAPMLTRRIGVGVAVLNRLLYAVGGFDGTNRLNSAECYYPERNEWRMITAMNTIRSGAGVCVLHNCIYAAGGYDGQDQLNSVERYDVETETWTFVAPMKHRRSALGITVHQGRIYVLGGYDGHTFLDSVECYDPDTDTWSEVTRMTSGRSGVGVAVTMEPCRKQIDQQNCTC

B1: NRF2 isoform 1 (wild-type full-length), FLAG-tagged (protein)
chain: MMDLELPPPGLPSQQDMDLIDILWRQDIDLGVSREVFDFSQRRKEYELEKQKKLEKERQEQLQKEQEKAFFAQLQLDEETGEFLPIQPAQHIQSETSGSANYSQVAHIPKSDALYFDDCMQLLAQTFPFVDDNEVSSATFQSLVPDIPGHIESPVFIATNQAQSPETSVAQVAPVDLDGMQQDIEQVWEELLSIPELQCLNIENDKLVETTMVPSPEAKLTEVDNYHFYSSIPSMEKEVGNCSPHFLNAFEDSFSSILSTEDPNQLTVNSLNSDATVNTDFGDEFYSAFIAEPSISNSMPSPATLSHSLSELLNGPIDVSDLSLCKAFNQNHPESTAEFNDSDSGISLNTSPSVASPEHSVESSSYGDTLLGLSDSEVEELDSAPGSVKQNGPKTPVHSSGDMVQPLSPSQGQSTHVHDAQCENTPEKELPVSPGHRKTPFTKDKHSSRLEAHLTRDELRAKALHIPFPVEKIINLPVVDFNEMMSKEQFNEAQLALIRDIRRRGKNKVAAQNCRKRKLENIVELEQDLDHLKDEKEKLLKEKGENDKSLHLLKKQLSTLYLEVFSMLRDEDGKPYSPSEYSLQQTRDGNVFLVPKSKKPDVKKN
- S/N [1]: 1.9
- A-counts [2]: 1880 A-counts
- A-counts (NRF2 plus KEAP1) [3]: 1710 A-counts
- A-counts [4]: 1970 A-counts
- A-counts [5]: 3040 A-counts
- A-counts [6]: 2660 A-counts
- S/N [7]: 4.2
- Average Binding [8]: 100%
- Binding Percentage [9]: 100%
- S/N [10]: 2.1
- A-counts [11]: 1900 A-counts
- A-counts [12]: 2410 A-counts
- A-counts (NRF2 plus KEAP1) [13]: 1560 A-counts
- % Disruption in Binding [14]: 0%
- A-counts [15]: 959 A-counts
- A-counts (NRF2 plus KEAP1) [16]: 725 A-counts
- A-counts [17]: 1850 A-counts
- A-counts (NRF2 plus KEAP1) [18]: 2640 A-counts

B2: NRF2 isoform 1 (I28V full-length), FLAG-tagged (protein)
chain: MMDLELPPPGLPSQQDMDLIDILWRQDVDLGVSREVFDFSQRRKEYELEKQKKLEKERQEQLQKEQEKAFFAQLQLDEETGEFLPIQPAQHIQSETSGSANYSQVAHIPKSDALYFDDCMQLLAQTFPFVDDNEVSSATFQSLVPDIPGHIESPVFIATNQAQSPETSVAQVAPVDLDGMQQDIEQVWEELLSIPELQCLNIENDKLVETTMVPSPEAKLTEVDNYHFYSSIPSMEKEVGNCSPHFLNAFEDSFSSILSTEDPNQLTVNSLNSDATVNTDFGDEFYSAFIAEPSISNSMPSPATLSHSLSELLNGPIDVSDLSLCKAFNQNHPESTAEFNDSDSGISLNTSPSVASPEHSVESSSYGDTLLGLSDSEVEELDSAPGSVKQNGPKTPVHSSGDMVQPLSPSQGQSTHVHDAQCENTPEKELPVSPGHRKTPFTKDKHSSRLEAHLTRDELRAKALHIPFPVEKIINLPVVDFNEMMSKEQFNEAQLALIRDIRRRGKNKVAAQNCRKRKLENIVELEQDLDHLKDEKEKLLKEKGENDKSLHLLKKQLSTLYLEVFSMLRDEDGKPYSPSEYSLQQTRDGNVFLVPKSKKPDVKKN
- S/N [19]: 3.2
- A-counts [20]: 1050 A-counts
- Reported Value (reduction in binding) [21]: 30.2%
- A-counts [22]: 1220 A-counts

B3: NRF2 isoform 1 (I86V full-length), FLAG-tagged (protein)
chain: MMDLELPPPGLPSQQDMDLIDILWRQDIDLGVSREVFDFSQRRKEYELEKQKKLEKERQEQLQKEQEKAFFAQLQLDEETGEFLPVQPAQHIQSETSGSANYSQVAHIPKSDALYFDDCMQLLAQTFPFVDDNEVSSATFQSLVPDIPGHIESPVFIATNQAQSPETSVAQVAPVDLDGMQQDIEQVWEELLSIPELQCLNIENDKLVETTMVPSPEAKLTEVDNYHFYSSIPSMEKEVGNCSPHFLNAFEDSFSSILSTEDPNQLTVNSLNSDATVNTDFGDEFYSAFIAEPSISNSMPSPATLSHSLSELLNGPIDVSDLSLCKAFNQNHPESTAEFNDSDSGISLNTSPSVASPEHSVESSSYGDTLLGLSDSEVEELDSAPGSVKQNGPKTPVHSSGDMVQPLSPSQGQSTHVHDAQCENTPEKELPVSPGHRKTPFTKDKHSSRLEAHLTRDELRAKALHIPFPVEKIINLPVVDFNEMMSKEQFNEAQLALIRDIRRRGKNKVAAQNCRKRKLENIVELEQDLDHLKDEKEKLLKEKGENDKSLHLLKKQLSTLYLEVFSMLRDEDGKPYSPSEYSLQQTRDGNVFLVPKSKKPDVKKN
- A-counts (NRF2 plus KEAP1) [23]: 2110 A-counts
- Binding Percentage [24]: 97.8%
- S/N [25]: 1.1

B4: NRF2 isoform 1 (Q75R full-length), FLAG-tagged (protein)
chain: MMDLELPPPGLPSQQDMDLIDILWRQDIDLGVSREVFDFSQRRKEYELEKQKKLEKERQEQLQKEQEKAFFAQLRLDEETGEFLPIQPAQHIQSETSGSANYSQVAHIPKSDALYFDDCMQLLAQTFPFVDDNEVSSATFQSLVPDIPGHIESPVFIATNQAQSPETSVAQVAPVDLDGMQQDIEQVWEELLSIPELQCLNIENDKLVETTMVPSPEAKLTEVDNYHFYSSIPSMEKEVGNCSPHFLNAFEDSFSSILSTEDPNQLTVNSLNSDATVNTDFGDEFYSAFIAEPSISNSMPSPATLSHSLSELLNGPIDVSDLSLCKAFNQNHPESTAEFNDSDSGISLNTSPSVASPEHSVESSSYGDTLLGLSDSEVEELDSAPGSVKQNGPKTPVHSSGDMVQPLSPSQGQSTHVHDAQCENTPEKELPVSPGHRKTPFTKDKHSSRLEAHLTRDELRAKALHIPFPVEKIINLPVVDFNEMMSKEQFNEAQLALIRDIRRRGKNKVAAQNCRKRKLENIVELEQDLDHLKDEKEKLLKEKGENDKSLHLLKKQLSTLYLEVFSMLRDEDGKPYSPSEYSLQQTRDGNVFLVPKSKKPDVKKN
- A-counts (NRF2 plus KEAP1) [26]: 1300 A-counts
- A-counts (NRF2 plus KEAP1) [27]: 1200 A-counts
